Results reported in patent US20260098093A1 (HUMMINGBIRD BIOSCIENCE PTE, published 2026).

Columns and labels:
[1] = molecular target: T1, HIS-tagged human VISTA (human, UniProt Q9H7M9 33-194); assay: BLI (Octet) epitope binning: human VISTA-HIS on anti-Penta-HIS sensor, antibody at 400 nM (concentration from paragraph 696)
T1 construct: Residues 33-194 are stated only for the protein used in HDXMS (Sino Biological #13482-H08H); also called human VISTA-HIS; not shown: HIS tag
T1 sequence: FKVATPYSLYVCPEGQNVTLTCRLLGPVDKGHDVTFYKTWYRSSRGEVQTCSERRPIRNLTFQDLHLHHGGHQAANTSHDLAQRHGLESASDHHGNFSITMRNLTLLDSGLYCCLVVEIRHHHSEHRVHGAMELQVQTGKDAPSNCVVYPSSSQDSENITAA

[2] = molecular target: T2, recombinant human VISTA-Fc protein (R&D #7126-B7) (human, UniProt Q9H7M9 33-194); assay: ELISA, VSIG3-Fc on plate-bound human VISTA-Fc
T2 construct: Bought protein; also called Fc-tagged human VISTA; not shown: Fc part of a bought fusion protein
T2 sequence: T1 sequence

[3] = molecular target: T2, recombinant human VISTA-Fc protein (R&D …); assay: competition ELISA: plate-bound human VISTA-Fc, competitor LRIG1.HIS at 1 µg/ml
Description: (§1) For inhibition assay, 384-well plates were coated with 5 μg/ml of human VISTA-Fc recombinant protein (R&D #7126-B7) diluted in PBS for 24 hrs at 4° C. […] Post incubation, plates were washed three times with TBST and incubated with anti-HIS HRP (Abcam #ab1187) antibody for 1 hr at room temperature followed by three further washes. Colorimetric reactions were developed using standard protocol as described for ELISA above.

[4] = molecular target: T2, recombinant human VISTA-Fc protein (R&D …); assay: competition ELISA: plate-bound human VISTA-Fc, competitor biotinylated VSIG3-Fc at 24 nM
Description: as §1, with “For the” for “For”, “2” for “5”, “streptavidin” for “anti-HIS”, “(R&D #DY998)” for “(Abcam #ab1187)”

[5] = molecular target: T3, B7H4 (human, UniProt Q7Z7D3 29-258, limits assumed); assay: ELISA: plate coated with the named human antigen, 4M2-C12-mIgG2a titrated, absorbance 450 nm
T3 construct: also called VTCN1
T3 sequence (looked up): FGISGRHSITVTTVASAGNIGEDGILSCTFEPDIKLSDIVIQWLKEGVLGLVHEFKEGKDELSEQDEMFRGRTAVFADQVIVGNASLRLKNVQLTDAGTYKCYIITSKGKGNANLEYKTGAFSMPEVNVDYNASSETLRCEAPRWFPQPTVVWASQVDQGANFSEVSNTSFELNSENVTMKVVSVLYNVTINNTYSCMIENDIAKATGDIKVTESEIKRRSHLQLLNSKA

[6] = molecular target: T4, CTLA-4 (human, UniProt P16410 36-162, limits assumed); assay: as above
T4 sequence (looked up): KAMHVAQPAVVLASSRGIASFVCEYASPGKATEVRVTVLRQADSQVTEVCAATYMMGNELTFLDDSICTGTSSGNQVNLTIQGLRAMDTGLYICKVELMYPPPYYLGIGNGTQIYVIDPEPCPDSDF

[7] = molecular target: PD-1 (human, UniProt Q15116 25-167, limits assumed); assay: as above
[8] = molecular target: T5, B7H3 (human, UniProt Q5ZPR3 29-461, limits assumed); assay: as above
T5 construct: also called CD276
T5 sequence (looked up): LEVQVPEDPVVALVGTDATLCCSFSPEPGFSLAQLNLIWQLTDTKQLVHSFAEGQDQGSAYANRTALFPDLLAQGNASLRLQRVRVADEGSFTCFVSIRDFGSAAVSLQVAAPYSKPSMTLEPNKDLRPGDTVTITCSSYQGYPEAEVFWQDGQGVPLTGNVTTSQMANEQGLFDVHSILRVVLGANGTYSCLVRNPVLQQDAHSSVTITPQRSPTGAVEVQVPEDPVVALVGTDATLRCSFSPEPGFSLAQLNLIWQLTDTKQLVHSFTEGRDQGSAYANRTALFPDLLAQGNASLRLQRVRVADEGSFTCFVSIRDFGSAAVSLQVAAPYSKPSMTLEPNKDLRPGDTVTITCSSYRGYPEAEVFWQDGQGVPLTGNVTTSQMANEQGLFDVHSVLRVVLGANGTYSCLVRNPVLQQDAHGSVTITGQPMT

[9] = molecular target: T6, B7H7 (human, UniProt Q9UM44 23-344, limits assumed); assay: as above
T6 construct: also called HHLA2
T6 sequence (looked up): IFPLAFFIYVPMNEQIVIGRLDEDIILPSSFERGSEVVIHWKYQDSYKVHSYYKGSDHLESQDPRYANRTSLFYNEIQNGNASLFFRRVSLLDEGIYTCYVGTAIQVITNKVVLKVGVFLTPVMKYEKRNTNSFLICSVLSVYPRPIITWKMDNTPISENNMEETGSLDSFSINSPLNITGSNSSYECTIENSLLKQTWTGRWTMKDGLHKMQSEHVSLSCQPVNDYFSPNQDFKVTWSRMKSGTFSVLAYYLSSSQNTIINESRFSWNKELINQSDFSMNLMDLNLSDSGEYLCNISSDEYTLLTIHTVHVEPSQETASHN

[10] = molecular target: T7, B7H6 (human, UniProt Q68D85 25-262, limits assumed); assay: as above
T7 construct: also called NCR3LG1
T7 sequence (looked up): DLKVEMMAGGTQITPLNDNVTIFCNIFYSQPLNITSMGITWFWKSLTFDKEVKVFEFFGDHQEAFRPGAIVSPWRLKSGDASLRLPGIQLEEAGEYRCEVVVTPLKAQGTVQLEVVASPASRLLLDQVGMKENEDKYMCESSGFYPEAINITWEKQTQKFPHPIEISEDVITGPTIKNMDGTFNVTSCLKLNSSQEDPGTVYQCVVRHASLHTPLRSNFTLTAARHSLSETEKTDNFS

[11] = molecular target: B7H1/PDL-1 (human, UniProt Q9NZQ7 19-239, limits assumed); assay: as above
[12] = molecular target: T1, HIS-tagged human VISTA; assay: ELISA: plate coated with the named human antigen, 4M2-C12-mIgG2a titrated, absorbance 450 nm; tag of the coated VISTA not stated

B1: IGN175A (antibody, human IgG1, kappa, V domains shown)
VH: QVQLQQSGAELMKPGASVKISCKATGYTFSTHWIEWVKQRPGHGLEWIGEILPGSGSTSYNEKFKGKATFTADTSSNTAYMQLSSLTSEDSAVYYCARWLLYYYAMDYWGQGTSVTVSS
VL: DVLMTQTPLSLPVSLGDQASISCRSSQSIVHSNGNTYLEWYLQKPGQSPKLLIYKLSNRFSGVPDRFSGSGSGTDFTLKISRVEAEDLGVYYCFQGSHFPYTFGGGTKLEIKR
Q: Does B1 bind [1]?
A: binds

B2: recombinant human VSIG3-Fc (Fc fusion, UniProt Q5DX21 23-241, looked up)
chain: LEVSESPGSIQVARGQPAVLPCTFTTSAALINLNVIWMVTPLSNANQPEQVILYQGGQMFDGAPRFHGRVGFTGTMPATNVSIFINNTQLSDTGTYQCLVNNLPDIGGRNIGVTGLTVLVPPSAPHCQIQGSQDIGSDVILLCSSEEGIPRPTYLWEKLDNTLKLPPTATQDQVQGTVTIRNISALSSGLYQCVASNAIGTSTCLLDLQVISPQPRNIG
modifications: biotinylated in the inhibition ELISA (sites not given)
notes: Bought protein; also called VSIG3-Fc (R&D #9229-VS); not shown: Fc part of a bought fusion protein
Q: For B2, which EC50 [2] is on record?
A: 24 nM

B3: V4-C26 hIgG4 (antibody)
heavy: not shown
light: EIVLTQSPATLSLSPGERATLSCRASSSVGYIHWYQQKPGQAPRPIIYTTSNRATGIPARFSGSGSGTDNTLTISSLEPEDSAVYYCQQWSSYPPITFGGGTKLEVKRTVAAPSVFIFPPSDEQLKSGTASVVCLLNNFYPREAKVQWKVDNALQSGNSQESVTEQDSKDSTYSLSSTLTLSKADYEKHKVYACEVTHQGLSSPVTKSFNRGEC
notes: Human IgG4 (S228P) / kappa; APC-conjugated in the flow cytometry assays; also called HMBD-002; V4-C26 hIgG4(S228P)
Q: Which IC50 [3] does the source give for B3 here?
A: 3.4 nM

Q: What about the IC50 [4] of the same binder?
A: 0.673 nM

B4: 4M2-C12-mIgG2a (antibody, V domains shown)
VH: EVKLVESGPGLVKPSQSLSLTCTVTGYSITSDYAWNWIRQFPGNKLEWMGYITYSGNISYNPSLRSRISITRDTSKNQFFLQLNSVTPEDTATYSCARSLYYPWYFDVWGAGTTVTVSS
VL: DIVITQTPAILSTSPGEKVTMTCRASSSVGYIHWYQQKPGSSPKPWIYATSNLASGVPARFSGSGSGTSNSLTITRVEAEDAATYYCQQWSSYPPITFGGGTKLEVKR
notes: also called V4P mIgG2a
Q: What does the source list for B4?
A: binding result [5]: no binding (tested: about 2e-8 M); binding result [6]: no binding (tested: about 2e-8 M); binding result [7]: no binding (tested: about 2e-8 M); binding result [8]: no binding (tested: about 2e-8 M); binding result [9]: no binding (tested: about 2e-8 M); binding result [10]: no binding (tested: about 2e-8 M); binding result [11]: no binding (tested: about 2e-8 M); EC50 (read off the curve) [12]: ~0.2 nM
